Residue numbers refer to the chain shown, from its start. In names and notes the source's numbering stands. Several values for one entry are separate records, joined by “and”; a condition that tells them apart may be missing. Identical values can stand only once.
T1: soluble ODAR-Fc fusion (FLAG-human ODAR extracellular domain-human Fc) (human, UniProt Q9Y6Q6 30-212)
T1 construct: extracellular domain; also called sODAR-Fc; not shown: amino terminal FLAG tag; carboxy terminal human Fc region
T1 sequence (looked up): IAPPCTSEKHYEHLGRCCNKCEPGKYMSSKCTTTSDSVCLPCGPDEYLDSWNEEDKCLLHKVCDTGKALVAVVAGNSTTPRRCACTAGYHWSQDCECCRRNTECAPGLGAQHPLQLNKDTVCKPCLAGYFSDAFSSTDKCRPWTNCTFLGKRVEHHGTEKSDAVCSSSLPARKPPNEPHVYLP

B1: Fab “S” (Fab, V domains shown)
VH: EVQLLESGGGLVQPGRSLRLSCAASGFTFDDYAMHWVRQAPGKGLEWVSGISWNSGRIGYADSVKGRFTISRDNAKNSLYLQMNSLRPEDTAFYYCAKGGSTSARYSSGWYYWGQGTLVTVSS
VL: QSVLTQPPSVSVSPGQTATITCSGDALPKQYVYWYRQKPGQAPLLVIYEDSERPSGIPERFSGSSSGTEVTLSISGVQAEDEADYYCQSTDSSGTYVVFGGGTKLTVLS
notes: also called Fab pattern “S”
B2: human OPG [22-194]-Fc (Fc fusion, UniProt O00300 22-194, looked up, not shown: a dimerising Fc or GST)
chain: ETFPPKYLHYDEETSHQLLCDKCPPGTYLKQHCTAKWKTVCAPCPDHYYTDSWHTSDECLYCSPVCKELQYVKQECNRTHNRVCECKEGRYLEIEFCLKHRSCPPGFGVVQAGTPERNTVCKRCPDGFFSNETSSKAPCRKHTNCSVFGLLLTQKGNATHDNICSGNSESTQK
B3: Fab “AT” (Fab, V domains shown)
VH: QVQLVQSGAEVRKPGASVKVSCKASGYDFSNYAIHWVRQAPGQRLEWMGWINAGNGNTKFSQKFQGRITVTRDTAASTAYMELRSLRSEDTAVYYCARDSSNMVRGIIIAYYFDYWGQGTLVTVSS
VL: EIVMTQSPSSLSASVGDRVTITCRASQSISRYLNWYQLKPGKAPRLLIYGASSLQSGVPSRFSGSGSGAEFTLTISSLQPEDIATYYCQHTRAFGQGTKVEIKR
notes: Soluble Fab from E. coli periplasm purified on Talon resin; also called soluble Fab “AT”; Fab pattern “AT”
B4: Fab “Y” (Fab, V domains shown)
VH: B3 VH with Q1E
VL: EIVLTQSPATLSFSPGERATLSCRASQSVGSYLAWYQQRPGQAPRPLIYDATNRATGIPTRFSGSGSGTDFTLTISSLEPEDFATYYCQHRRTFGRGTKLEIKR
notes: also called soluble Fab “Y”; Fab pattern “Y”
B5: “AT” Fab variant Y(100h)A (heavy chain CDR3) (Fab, name in Kabat numbering, V domains shown)
VH: B3 VH with Y112A
VL: B3 VL
B6: “AT” Fab variant I(100c)A (heavy chain CDR3) (Fab, name in Kabat numbering, V domains shown)
VH: B3 VH with I107A
VL: B3 VL
B7: “AT” Fab variant R(100a)A (heavy chain CDR3) (Fab, name in Kabat numbering, V domains shown)
VH: B3 VH with R105A
VL: B3 VL
B8: “AT” Fab variant I(100d)A (heavy chain CDR3) (Fab, name in Kabat numbering, V domains shown)
VH: B3 VH with I108A
VL: B3 VL
B9: “AT” Fab variant S97A (heavy chain CDR3) (Fab, name in Kabat numbering, V domains shown)
VH: B3 VH with S101A
VL: B3 VL
B10: “AT” Fab variant Y(100g)A (heavy chain CDR3) (Fab, name in Kabat numbering, V domains shown)
VH: B3 VH with Y111A
VL: B3 VL
B11: “AT” Fab variant M99A (heavy chain CDR3) (Fab, name in Kabat numbering, V domains shown)
VH: B3 VH with M103A
VL: B3 VL
B12: “AT” Fab variant V100A (heavy chain CDR3) (Fab, name in Kabat numbering, V domains shown)
VH: B3 VH with V104A
VL: B3 VL
B13: “AT” Fab variant I(100e)A (heavy chain CDR3) (Fab, name in Kabat numbering, V domains shown)
VH: B3 VH with I109A
VL: B3 VL
B14: “AT” Fab variant D95A (heavy chain CDR3) (Fab, name in Kabat numbering, V domains shown)
VH: B3 VH with D99A
VL: B3 VL
B15: “AT” Fab variant G(100b)A (heavy chain CDR3) (Fab, name in Kabat numbering, V domains shown)
VH: B3 VH with G106A
VL: B3 VL
B16: “AT” Fab variant N98A (heavy chain CDR3) (Fab, name in Kabat numbering, V domains shown)
VH: B3 VH with N102A
VL: B3 VL
B17: “AT” Fab variant S96A (heavy chain CDR3) (Fab, name in Kabat numbering, V domains shown)
VH: B3 VH with S100A
VL: B3 VL
B18: human OPGbp [143-317] (ligand, UniProt O14788 143-317, looked up)
chain: EKAMVDGSWLDLAKRSKLEAQPFAHLTINATDIPSGSHKVSLSSWYHDRGWAKISNMTFSNGKLIVNQDGFYYLYANICFRHHETSGDLATEYLQLMVYVTKTSIKIPSSHTLMKGGSTKYWSGNSEFHFYSINVGGFFKLRSGEEISIEVSNPSLLDPDQDATYFGAFKVRDID
notes: also called OPGL

What was measured:
human OPGbp [143-317] [1] = target: B18; experiment: phage ELISA on plated OPGbp [143-317]
human OPGbp [143-317] [2] = target: B18; experiment: cell-based or functional assay
human OPGbp [143-317] [3] = target: B18; experiment: SPR (BIAcore), OPGbp on CM5 chip
Protocol: The binding constant (Kd), on rate constant (ka) and off rate constant (kd) for Fabs “AT” and “Y” and “AT” antibody were determined by surface plasmon resonance techniques (BIAcore, Pharmacia, Piscataway, N.J.) and the results are shown in Table II. Fabs were prepared as described in Example 4 and “AT” antibody prepared as described in Example 7. OPGbp was immobilized on a CM5-chip by standard amine coupling. The Kd and rate constants were determined by BIAEVALUATION 3.0 software (Pharmacia).

human OPGbp [143-317] [4] = target: B18; experiment: SPR (BIAcore), immobilized OPGbp [143-317]
human OPGbp [143-317] [5] = target: B18; experiment: FRET competition, inhibition of OPGbp-Eu binding to sODAR-Fc
Protocol: (§1) A 1 hour preincubation with OPGbp was added for increased sensitivity. A soluble extracellular domain of human ODAR was constructed as a fusion polypeptide with an amino terminal FLAG tag and a carboxy terminal human Fc region. The Fc region is recognized and bound by a polyclonal goat anti-human Fc specific allophycocyanin (APC) which is detected by […] at 665 nm. […] Binding of OPGbp to ODAR in this assay triggers a fluorescent energy transfer and is highly sensitive for competition curves. A decrease in the A665/A620 absorbance ratio indicates inhibition of OPGbp binding to ODAR.
(§2) The Fab “Y” clone 1B4 was from the predominant 9 member pattern from one 96-well plate (all with same amino acid sequence) from the optimized plated OPGbp screen using a 1 μM OPGbp elution for 90 min. […] Similar IC50's were obtained with the duplicate preparations “A” and “B”.

human OPGbp [143-317] [6] = target: B18; experiment: FRET competition, inhibition of OPGbp-Eu binding to sODAR-Fc, in PBS
Protocol: as §1, §2

human OPGbp [143-317] [7] = target: B18; experiment: FRET competition, inhibition of OPGbp-Eu binding to sODAR-Fc, in TBS
Protocol: as §1, §2

[8] = target: T1, soluble ODAR-Fc fusion (FLAG-human ODAR …); experiment: FRET competition, unlabelled OPGbp against OPGbp-Eu on sODAR-Fc, in PBS (positive control)
Protocol: as §1, §2

[9] = target: T1, soluble ODAR-Fc fusion (FLAG-human ODAR …); experiment: FRET competition, unlabelled OPGbp against OPGbp-Eu on sODAR-Fc, in TBS (positive control)
Protocol: as §1, §2

Binder: B1
binding result (human OPGbp [143-317] [1]): binds

Binder: B2
RAW cell assay, IC50, positive control (human OPGbp [143-317] [2]): 0.033 µg/mL

Binder: B3
RAW cell assay (TRAP, OD405), IC50 (human OPGbp [143-317] [2]): 15 µg/ml and 300 nM
murine bone marrow assay, TRAP activity in solution (pNPP), 50% decrease (IC50) (human OPGbp [143-317] [2]): 57.8 nM
Kd (human OPGbp [143-317] [3]): 140 nM
koff (human OPGbp [143-317] [3]): 0.31 s⁻¹
kon (human OPGbp [143-317] [3]): 2.2e+06 M⁻¹ s⁻¹
koff (human OPGbp [143-317] [4]): 0.284 s⁻¹
IC50 (human OPGbp [143-317] [5]): 550 nM
IC50 (human OPGbp [143-317] [6]): 440 nM
IC50 (human OPGbp [143-317] [7]): 354 nM

Binder: B4
Kd (human OPGbp [143-317] [3]): 594 nM
koff (human OPGbp [143-317] [3]): 0.00591 s⁻¹
kon (human OPGbp [143-317] [3]): 9440 M⁻¹ s⁻¹
IC50 (human OPGbp [143-317] [5]): 6000 nM
IC50 (human OPGbp [143-317] [7]): 4100 nM

Binder: B5
koff (human OPGbp [143-317] [4]): 0.368 s⁻¹

Binder: B6
koff (human OPGbp [143-317] [4]): 0.53 s⁻¹

Binder: B7
koff (human OPGbp [143-317] [4]): 0.303 s⁻¹

Binder: B8
koff (human OPGbp [143-317] [4]): 0.622 s⁻¹

Binder: B9
koff (human OPGbp [143-317] [4]): 0.0062 s⁻¹

Binder: B10
koff (human OPGbp [143-317] [4]): 0.074 s⁻¹

Binder: B11
koff (human OPGbp [143-317] [4]): 1.12 s⁻¹

Binder: B12
koff (human OPGbp [143-317] [4]): 0.261 s⁻¹

Binder: B13
koff (human OPGbp [143-317] [4]): 0.0069 s⁻¹

Binder: B14
binding result (human OPGbp [143-317] [4]): no binding

Binder: B15
koff (human OPGbp [143-317] [4]): 0.657 s⁻¹

Binder: B16
koff (human OPGbp [143-317] [4]): 0.012 s⁻¹

Binder: B17
koff (human OPGbp [143-317] [4]): 0.0072 s⁻¹

Binder: B18
IC50 [8]: 0.93 nM
IC50 [9]: 0.89 nM
